In the supplement of paper PMC7877785:
± gives the uncertainty stated by the source.

Assay: self-splicing fitness, log relative to wild type (ln ratio); higher = more splicing; Tetrahymena group I intron in knt gene, E. coli kanamycin selection, DiMSum; sequences stand for … in CUCUCU…GGAGGGAAAAGUUAUCAGGCAUGCACCUGGUAGCUAGUCUUUAAACCAAUAGAUUGCAUCGGUUUAAAAGGCAAGACCGUCAAAUUGCGGGAAAGGGGUCAACAGCCGUUCAGUACCAAGUCUCAGGGGAAACUUUGAGAUGGCCUUGCAAAGGGUAUGGUAAUAAGCUGACGGACAUGGUCCUAACCACGCAGCCAAGUCCUAAGUCAACAGAUCUUCUGUUGAUAUGGAUGCAGUUCACAGACUAAAUGUCGGUCGGGGAAGAUGUAUUCUUCUCAUAAGAUAUAGUCGGACCUCUCCUUAAUGGGAGCUAGCGGAUGAAGUGAUGCAACACUGGAGCCGCUGGGAACUAAUUUGUAUGCGAAAGUAUAUUGAUUAGUUUUGGAGUACUCGUGGUCG
Procedure, shortened: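 Pooled colonies went to amplicon sequencing on an Illumina HiSeq 2500 after six replicate transformations. The plates were LB agar with 100 μg/mL carbenicillin, 50 μM IPTG and 0.2% rhamnose, with or without 25 μg/mL kanamycin, incubated overnight at 37°C or 30°C. The E. coli BL21(DE3) library had all eight P1ex-region intron nucleotides randomised, the intron placed in the knt kanamycin-resistance gene on pET-22b(+). DiMSum fitness is the error-weighted combination of replicate fold changes, kanamycin against none, normalised to wild type.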

Sequence: CCCCAGCAAUAUUACGCCAG
- self-splicing fitness (ln) (30 °C): -3.57 ± 0.2
- self-splicing fitness (ln) (37 °C): -2.44 ± 0.22

Sequence: CCAUAGCAAUAUUACGGGCA
- self-splicing fitness (ln) (30 °C): -3.32 ± 0.26
- self-splicing fitness (ln) (37 °C): -2.95 ± 0.29

Sequence: UCAAAGCAAUAUUACGUAUG
- self-splicing fitness (ln) (30 °C): -2.44 ± 0.12
- self-splicing fitness (ln) (37 °C): -2.05 ± 0.15

Sequence: UGUCAGCAAUAUUACGCUCU
- self-splicing fitness (ln) (30 °C): -0.884 ± 0.15
- self-splicing fitness (ln) (37 °C): -0.226 ± 0.13

Sequence: CGGUAGCAAUAUUACGAAUA
- self-splicing fitness (ln) (30 °C): -2.04 ± 0.35
- self-splicing fitness (ln) (37 °C): -1.67 ± 0.3

Sequence: AGUGAGCAAUAUUACGCCCG
- self-splicing fitness (ln) (30 °C): -2.27 ± 0.4

Sequence: GGCGAGCAAUAUUACGCAUA
- self-splicing fitness (ln) (30 °C): -1.15 ± 0.17
- self-splicing fitness (ln) (37 °C): -0.988 ± 0.16

Sequence: GAGUAGCAAUAUUACGACAU
- self-splicing fitness (ln) (30 °C): -0.282 ± 0.014
- self-splicing fitness (ln) (37 °C): -0.127 ± 0.033

Sequence: CGGUAGCAAUAUUACGUAGA
- self-splicing fitness (ln) (30 °C): -1.73 ± 0.053
- self-splicing fitness (ln) (37 °C): -1.89 ± 0.082

Sequence: CGAUAGCAAUAUUACGACUU
- self-splicing fitness (ln) (30 °C): -1.4 ± 0.088
- self-splicing fitness (ln) (37 °C): -1.47 ± 0.13

Sequence: CCCAAGCAAUAUUACGCCCU
- self-splicing fitness (ln) (30 °C): -3.14 ± 0.43

Sequence: GUUGAGCAAUAUUACGUAGG
- self-splicing fitness (ln) (30 °C): -3.49 ± 0.22
- self-splicing fitness (ln) (37 °C): -2.93 ± 0.37

Sequence: AUACAGCAAUAUUACGCUCA
- self-splicing fitness (ln) (30 °C): -0.776 ± 0.069
- self-splicing fitness (ln) (37 °C): 0.318 ± 0.086

Sequence: UGCGAGCAAUAUUACGCAGC
- self-splicing fitness (ln) (37 °C): -1.49 ± 0.37

Sequence: GCGUAGCAAUAUUACGUAAA
- self-splicing fitness (ln) (30 °C): -0.977 ± 0.21
- self-splicing fitness (ln) (37 °C): -1.1 ± 0.25

Sequence: GGCCAGCAAUAUUACGGCUA
- self-splicing fitness (ln) (30 °C): -0.439 ± 0.097
- self-splicing fitness (ln) (37 °C): -0.0906 ± 0.1

Sequence: CCAAAGCAAUAUUACGCCUC
- self-splicing fitness (ln) (30 °C): -3.33 ± 0.29
- self-splicing fitness (ln) (37 °C): -2.52 ± 0.32

Sequence: UGCGAGCAAUAUUACGAACG
- self-splicing fitness (ln) (30 °C): -1.07 ± 0.14
- self-splicing fitness (ln) (37 °C): -1.05 ± 0.16

Sequence: AUUUAGCAAUAUUACGCGUC
- self-splicing fitness (ln) (30 °C): -3.21 ± 0.3
- self-splicing fitness (ln) (37 °C): -2.96 ± 0.47

Sequence: ACGGAGCAAUAUUACGGCCG
- self-splicing fitness (ln) (30 °C): -1.98 ± 0.16
- self-splicing fitness (ln) (37 °C): -2.03 ± 0.28

Sequence: GCAGAGCAAUAUUACGGCCG
- self-splicing fitness (ln) (30 °C): -3.3 ± 0.24
- self-splicing fitness (ln) (37 °C): -2.02 ± 0.27

Sequence: UAUGAGCAAUAUUACGUGCA
- self-splicing fitness (ln) (30 °C): -2.09 ± 0.13
- self-splicing fitness (ln) (37 °C): -2.32 ± 0.15

Sequence: ACUGAGCAAUAUUACGUGUG
- self-splicing fitness (ln) (30 °C): -2.22 ± 0.11
- self-splicing fitness (ln) (37 °C): -2.13 ± 0.16

Sequence: GUAUAGCAAUAUUACGUCGC
- self-splicing fitness (ln) (30 °C): -3.04 ± 0.25
- self-splicing fitness (ln) (37 °C): -1.65 ± 0.2

Sequence: AGCGAGCAAUAUUACGUGAG
- self-splicing fitness (ln) (30 °C): -4.49 ± 0.27
- self-splicing fitness (ln) (37 °C): -2.79 ± 0.19

Sequence: UGCAAGCAAUAUUACGAGUA
- self-splicing fitness (ln) (30 °C): -0.888 ± 0.083
- self-splicing fitness (ln) (37 °C): 0.181 ± 0.083

Sequence: CUACAGCAAUAUUACGCCGC
- self-splicing fitness (ln) (30 °C): -3.76 ± 0.22
- self-splicing fitness (ln) (37 °C): -3.62 ± 0.39

Sequence: ACCCAGCAAUAUUACGCGUC
- self-splicing fitness (ln) (30 °C): -2.16 ± 0.088
- self-splicing fitness (ln) (37 °C): -1.42 ± 0.11

Sequence: UUGAAGCAAUAUUACGUGGG
- self-splicing fitness (ln) (30 °C): -2.69 ± 0.099
- self-splicing fitness (ln) (37 °C): -1.35 ± 0.1

Sequence: CAUCAGCAAUAUUACGCCGU
- self-splicing fitness (ln) (30 °C): -2.51 ± 0.11
- self-splicing fitness (ln) (37 °C): -1.13 ± 0.15

Sequence: AGAUAGCAAUAUUACGCAUC
- self-splicing fitness (ln) (30 °C): -1.84 ± 0.3
- self-splicing fitness (ln) (37 °C): -1.91 ± 0.36

Sequence: UGAGAGCAAUAUUACGUGAU
- self-splicing fitness (ln) (30 °C): -3.97 ± 0.46
- self-splicing fitness (ln) (37 °C): -2.72 ± 0.38

Sequence: AGUGAGCAAUAUUACGGCAC
- self-splicing fitness (ln) (30 °C): -1.29 ± 0.17
- self-splicing fitness (ln) (37 °C): -1.01 ± 0.21

Sequence: GCAUAGCAAUAUUACGCACC
- self-splicing fitness (ln) (30 °C): -1.28 ± 0.21

Sequence: AGGAAGCAAUAUUACGGUGC
- self-splicing fitness (ln) (30 °C): -3.36 ± 0.21
- self-splicing fitness (ln) (37 °C): -2.51 ± 0.2

Sequence: UUUCAGCAAUAUUACGCAUA
- self-splicing fitness (ln) (30 °C): -2.13 ± 0.21
- self-splicing fitness (ln) (37 °C): -0.691 ± 0.17

Sequence: AGGCAGCAAUAUUACGCAGU
- self-splicing fitness (ln) (30 °C): -3.36 ± 0.2
- self-splicing fitness (ln) (37 °C): -1.55 ± 0.19

Sequence: GAGGAGCAAUAUUACGCUCA
- self-splicing fitness (ln) (30 °C): -0.973 ± 0.24
- self-splicing fitness (ln) (37 °C): -0.181 ± 0.27

Sequence: GUCAAGCAAUAUUACGCUCU
- self-splicing fitness (ln) (30 °C): -1.58 ± 0.14
- self-splicing fitness (ln) (37 °C): -1.18 ± 0.14
